Experimental data as given in US20190022245A1 (ACADEMIA SINICA, published 2019).

Columns and labels:
[1] = target: T1, human epidermal growth factor receptor (HER2) on cells (human, UniProt P04626 23-1255); test: flow cytometry on BT-474 cells
T1 construct: whole, on cells; also called HER2/Neu; Her2/neu

[2] = target: T1, human epidermal growth factor receptor …; test: culture medium on BT-474 cells (HER2 positive), FITC anti-human Ig
Method: (§1) The binding specificity of monovalent BsAbs with their target proteins was measured by collecting the culture medium of BsAbs producing cells, adding the collected medium to cells that expressed the target protein, then determining the binding by […]. After washing the cells, the bound BsAbs were detected by FITC-labeled goat anti-human immunoglobulin second antibody. […] Thus, monovalent anti-PEG (hE11) BsAbs bound to target cells in an antigen-dependent and selective manner.

[3] = target: T2, epidermal growth factor receptor (EGFR) on cells (human (on human cell lines), UniProt P00533 25-1210); test: culture medium on MDA-MB-468 cells (EGFR positive), FITC anti-human Ig
T2 construct: whole, on cells
Method: as §1

[4] = target: T3, BSA (control protein coated on ELISA plates) (UniProt P02769 25-607); test: ELISA, BSA-coated plate, graded concentrations
T3 construct: also called control BSA protein
T3 sequence (P02769 25-607 limits assumed): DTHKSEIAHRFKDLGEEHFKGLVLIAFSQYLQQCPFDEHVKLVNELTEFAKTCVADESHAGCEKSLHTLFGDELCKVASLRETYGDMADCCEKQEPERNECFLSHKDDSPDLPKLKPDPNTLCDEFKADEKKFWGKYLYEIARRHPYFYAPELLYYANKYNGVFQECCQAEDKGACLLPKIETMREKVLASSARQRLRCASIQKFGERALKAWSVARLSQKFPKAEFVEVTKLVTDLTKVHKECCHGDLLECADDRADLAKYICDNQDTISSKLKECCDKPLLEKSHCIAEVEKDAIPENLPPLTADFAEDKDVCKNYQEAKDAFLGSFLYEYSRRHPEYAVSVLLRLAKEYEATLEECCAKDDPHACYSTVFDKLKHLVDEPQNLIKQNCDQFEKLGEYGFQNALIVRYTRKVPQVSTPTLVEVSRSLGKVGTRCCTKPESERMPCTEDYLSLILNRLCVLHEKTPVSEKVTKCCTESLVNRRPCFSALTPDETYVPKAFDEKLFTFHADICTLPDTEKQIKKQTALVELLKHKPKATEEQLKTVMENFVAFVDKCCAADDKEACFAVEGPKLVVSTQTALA
Method: The anti-PEG binding specificity of BsAbs was measured by adding graded concentrations of PEG2×TAG72,PEG2×DNS, hCC49 scFv, h6.3Fab×EGFR or h6.3Fab×CD19 in 50 μL 2% skim milk to the mucin, BSA-PEG5000, NH₂-PEG₃ₖ-NH₂ or BSA coated plates at RT for 1 h. The plates were washed with PBS-T (PBS containing 0.05% Tween-20) three times. Rabbit anti-6×His (2 μg/mL) supplemented with HRP-conjugated goat anti-rabbit (2 μg/mL) or HRP-conjugated goat Ig anti human IgG Fab (2 μg/mL) (Jackson ImmunoResearch Laboratories, West Grove, Pa.) in 50 μL dilution buffer were added for 1 h at room temperature. The plates were washed with PBS-T (PBS containing 0.05% Tween-20) three times and with PBS two times. Bound peroxidase activity was measured by adding 150 μL/well ABTS substrate solution (BioLegend, San Diego, Calif.) for 30 min at room temperature. The absorbance (405 nm) of wells was measured in a microplate reader (Molecular Device, Menlo Park, Calif.).
Further, both h6-3Fab×EGFR and h6.3Fab×CD19 BsAbs bound to the NH₂-PEG_{10,000}-NH2, but not to the control BSA protein, indicating their binding specificity toward PEG molecule (FIGS. 14A and 14B). […] The PEG-binding kinetics of h6-3Fab×EGFR and h6.3Fab×CD19 BsAbs were verified by Microscale Thermophoresis (MST) (FIGS. 14D and 14E).

[5] = target: T2, epidermal growth factor receptor (EGFR) …; test: flow cytometry, BsAb on A431 cells then PEG-liposome Texas Red or PEG-Qdot655
Method: PEG2×TAG72 or control PEG2×DNS BsAbs (10 μg/mL) were incubated with A-375(TAG72-), MCF-7(TAG72+), Jurkat (TAG72+) or OVCAR-3(TAG72+) cells at 4° C. for 30 min followed by FITC-labeled goat anti-human immunoglobulin second antibody (2 μg/m L) (Jackson ImmunoResearch Laboratories, West Grove, Pa.) or FITC-labeled 4arm-PEG (2 μg/mL). Tumor-specific targeting of PEGylated compounds was also examined by staining A431 (EGFR^high), and Raji (CD19^high) cell lines with 10 μg/mL of h6.3Fab×EGFR or h6.3Fab×CD19 BsAbs in PBS containing 0.05% BSA (staining buffer) at 4° C. for 30 min. The cells were washed with cold PBS for 3 times. PEG-Qdot655 (8 nM) (Invitrogen, Grand Island, N.Y.) or PEG-liposomal Texas-Red (100 nm size, 50 μM, lipid conc.) (FormuMax Scientific, Palo Alto, Calif.) in staining buffer was added to cells for 30 min at 4° C. […] After washing with cold PBS, the surface fluorescence of 10⁴ viable cells was measured by FACScaliber flow cytometer (Becton Dickinson, Mountain View, Calif., USA) then analyzed with Flowjo (Tree Star Inc., San Carlos, Calif., USA).
Further, both h6-3Fab×EGFR and h6.3Fab×CD19 BsAbs bound to the NH₂-PEG_{10,000}-NH2, but not to the control BSA protein, indicating their binding specificity toward PEG molecule (FIGS. 14A and 14B). […]

[6] = target: T1, human epidermal growth factor receptor …; test: flow cytometry, 10 µg/ml BsAb, FITC anti-human IgG; also methoxy-PEG Qdot 655 retained at SKBR3 cells
[7] = target: T1, human epidermal growth factor receptor …; test: flow cytometry on SKBR3 cells (HER2+), FITC anti-human IgG

B1: PEG2×HER2 (dimeric humanized anti-PEG (hE11) anti-HER2 BsAb) (bispecific antibody, human IgG1, kappa)
light: DVVMTQSPLSLPVTLGQPASISCRSSKSIVHSNGNTYLEWFQQRPGQSPRRLIYKVSKRMSGVPDRFSGSGSGTDFTLKISRVEAEDVGVYYCSQGSHVPPTFGGGTKVEIKRTVAAPSVFIFPPSDEQLKSGTASVVCLLNNFYPREAKVQWKVDNALQSGNSQESVTEQDSKDSTYSLSSTLTLSKADYEKHKLYACEVTHQGLSSPVTKSFNRGEC
heavy: not shown
notes: also called PEG2×HER2 BsAbs
Question: Does B1 bind [1]?
Answer: binds

B2: PEGxTAG72 (monovalent anti-PEG (hE11) Fab fused to anti-TAG72 scFv, example 2.1) (bispecific antibody)
light: B1 light
heavy: QVQLVQSGAEVKKPGASVKVSCKASGYTFTTYTMNWVRQAPGQGLEWMGYIIPSSGYVDYNQKFKGRVTMTRDTSTSTVYMELSSLRSEDTAVYYCVRSLDGYFWFAYWGQGTLVTVSSASTKGPSVFPLAPSSKSTSGGTAALGCLVKDYFPEPVTVSWNSGALTSGVHTFPAVLQSSGLYSLSSVVTVPSSSLGTQTYICNVNHKPSNTKVDKRVVDLVTVSSASTGGGSGQLGGGGSQVQLVQSGAEVKKPGASVKVSCKASGYTFTDHAIHWVRQAPGQCLEWMGYFSPGNDDFKYSQKFQGRVTITADKSASTAYMELSSLRSEDTAVYYCARSWIMQYWGQGTLVTVSSGGGGSGGGGSGGGGSDIVMTQSPDSLAVSLGERATINCKSSQSVLYSSNNKNYLAWYQQKPGQPPKLLIYWASTRESGVPDRFSGSGSGTDFTLTISSLQAEDVAVYYCQQYYSYPLTFGCGTKVEIKTRHHHHHH
notes: Tested as culture medium of producer cells; also called PEG×TAG72; monovalent anti-PEG (hE11) BsAb
Question: Does B2 bind [2]?
Answer: no binding

Question: Does B2 bind [3]?
Answer: no binding

B3: h6.3 Fab × CD19 (monovalent anti-PEG (h6.3) anti-CD19 BsAb) (bispecific antibody)
light: DIVMTQSPDSLAVSLGERATINCKSSQSVLYSSNQMNYLAWYQQKPGQPPKLLIYWASTRESGVPDRFSGSGSGTDFTLTISSLQAEDVAVYYCLQYLSSWTFGGGTKLEIKTYSLSSTLTLSKADYEKHKLYACEVTHQGLSSPVTKSFNRGEC
heavy: QVQLVQSGSELKKPGASVKVSCKASGYTFKNYGMNWVRQAPGQGLEWMGWINTYTGQPIYANDFKGRFVFSLDTSVSTAYLQISSLKAEDTAVYYCARDWGPYWGQGTLVTVSSASTKGPSVFPLAPSSKSTSGGTAALGCLVKDYFPEPVTVSWNSGALTSGVHTFPAVLQSSGLYSLSSVVTVPSSSLGTQTYICNVNHKPSNTKVDKRVEPKSCDKVDLVTVSSASTGGGSGQLGGGGSQVQLQESGPGLVKPSQTLSLTCTVSGGSISTSGMGVGWIRQHPGKCLEWIGHIWWDDDKRYNPALKSRVTISVDTSKNQFSLKLSSVTAADTAVYYCARMELWSYYFDYWGQGTLVTVSSGGGGSGGGGSGGGGSEIVLTQSPATLSLSPGERATLSCSASSSVSYMHWYQQKPGQAPRLLIYDTSKLASGIPARFSGSGSGTDFTLTISSLEPEDVAVYYCFQGSVYPFTFGCGTKLEIKRTRHHHHHH
notes: Fab-dsFv; also called h6.3-hBU12
Question: What does the source list for B3?
Answer: binding result [4]: no binding; binding result [5]: no binding (tested: 10 µg/mL)

B4: 15-2b knob/anti-HER2 hole (knob in hole anti-mPEG (h15-2b) anti-HER2 BsAb) (bispecific antibody)
light 1: DIQMTQSPSSLSASVGDRVTITCKASQDVNTSVAWYQQKPGKAPKLLIYWASTRHTGVPSRFSGSGSGTDFTFTISSLQPEDIATYYCLQYINYPYTFGQGTKLEIKRTVAAPSVFIFPPSDEQLKSGTASVVCLLNNFYPREAKVQWKVDNALQSGNSQESVTEQDSKDSTYSLSSTLTLSKADYEKHKLYACEVTHQGLSSPVTKSFNRGEC
heavy 1: not shown
light 2: QSVLTQPPSVSAAPGQKVTISCSGSSSNIGNNYVSWYQQLPGTAPKLLIYDHTNRPAGVPDRFSGSKSGTSASLAISGFRSEDEADYYCASWDYTLSGWVFGGGTKLTVLGSSASTKGPSVFPLAPSSKSTSGGTAALGCLVKDYFPEPVTVSWNSGALTSGVHTFPAVLQSSGLYSLSSVVTVPSSSLGTQTYICNVNHKPSNTKVDKKV
heavy 2: not shown
notes: Four different chains; also called h15-2b-knob/anti-HER2-hole; h15-2b-knob/anti-Her2-hole; not shown: HA tag fused at the N terminal of the hole heavy chain
Question: Does B4 bind [6]?
Answer: binds

B5: 15-2b knob/Bu12 hole (knob in hole anti-mPEG (h15-2b) anti-CD19 BsAb) (bispecific antibody)
light 1: B4 light 1
heavy 1: not shown
light 2: EIVLTQSPATLSLSPGERATLSCSASSSVSYMHWYQQKPGQAPRLLIYDTSKLASGIPARFSGSGSGTDFTLTISSLEPEDVAVYYCFQGSVYPFTFGQGTKLEIKRSSASTKGPSVFPLAPSSKSTSGGTAALGCLVKDYFPEPVTVSWNSGALTSGVHTFPAVLQSSGLYSLSSVVTVPSSSLGTQTYICNVNHKPSNTKVDKKV
heavy 2: not shown
notes: Four different chains; also called h15-2b-knob/BU12-hole; h15-2b knob+BU12-hole; not shown: HA tag fused at the N terminal of the hole heavy chain
Question: Does B5 bind [7]?
Answer: no binding (tested: 10 µg/ml)
